Laboratory results as given in the supplement of paper PMC9170038.

Test system: MS2 coat protein
Assay: apparent KD of MS2 coat protein; designed switch direction (-1 OFF switch, 1 ON switch): -1; higher = weaker reporter binding
Summary of the method: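 Designed RNA switches with common flanks were made on Illumina chips by stalled E. coli RNA polymerase. Titration with SNAP-549-labelled MS2 coat protein doubled from 0.7 or 1.5 nM up to 3 µM. Apparent KD is each design's median over clusters after curve-fitting normalised fluorescence.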

[1] = input ligand: microRNA oligo, concentration not stated
[2] = Eterna round: R95, input ligand: FMN 200 uM
[3] = Eterna round: R95, input ligand: microRNA oligo, concentration not stated
[4] = Eterna round: R95, input ligand: none

Sequence | apparent KD of MS2 coat protein (input ligand: FMN 200 uM) [nM] | apparent KD of MS2 coat protein (input ligand: none) [nM] | apparent KD of MS2 coat protein [3] [nM] | also measured
UCUCGCGGGCAAGGAUAUCCCACGCUGUUCUGGCCCGUGUUUGUUACAUGAGGAUCACCCAUGUGGGAGAAGGUGCACCAGGGC [Design 42] (Eterna round: R96, puzzle: Exclusion NG 2) | 218 | 168 |  | apparent KD of MS2 coat protein [1]: 96.3 nM
UUAAAAUAUGUAGGAUAUGCGUGGCGAAGCUAUGCAGAAGGACAUGAGGAUCACCCAUGUUCCUGCGUCCGCGUACGGAUGCAA [JL Eng1 1.21 mod 3] (Eterna round: R96, puzzle: Exclusion NG 1) | 14.8 | 12.4 |  | apparent KD of MS2 coat protein [1]: 9.15 nM
UCAUGUAUGUAGGAUAUCGAUGUCCUCGGACAUCGAGAAGGACGUACAUGAGGAUCACCCAUGUAACUUGCAUG [Exclusion 6 - B - 11:c] (puzzle: Exclusion 6) |  |  | 14 | apparent KD of MS2 coat protein [2]: 23 nM; apparent KD of MS2 coat protein [4]: 23.4 nM
CCCAUGUCAGGAUAUCUAAGAGAGGGCCAGCCCUCUCCUCCGGAGAAGGGACAUGAGGAUCACCCAUGUAAAAC [Biedle] (puzzle: Exclusion 4) |  |  | 93.3 | 
UUCUUGGCAGGAUAUGCUCUCUUAGACAUGAGGAUCACCCAUGUGUUCAUUCUUUCUUUUGCAGAAGGGCCUUAAU [JR_E5_Sub045] (puzzle: Exclusion 5) |  |  | 52.6 | 
CACCUGAAGAGAGGAUAUGAUACAUGAGGAUCACCCAUGUAAUAAAUGAGAAUUUCGAAUGUAAUUCAGAAGGCUCAAUAAGGC [Ostricism 94 - Jieux - Exclusion NG 2] (Eterna round: R96, puzzle: Exclusion NG 2) | 107 | 52 |  | apparent KD of MS2 coat protein [1]: 50.8 nM
CCUGAUCCACAGGAUAUGCUCAUCUAAUGAUGAGCAGAAGGGUGGACAUGAGGAUCACCCAUGUUUAUCAAUGG [Omei Ex6 D4] (Eterna round: R97, puzzle: Exclusion 6) | 804 | 125 |  | 
UCUUAUUGCAAGGAUAUGCUUUUUAUUUCUUUUGCAGAAGGUGCAACAUGAGGAUCACCCAUGUUUCCGGGCAU [JR_E6_Sub035] (puzzle: Exclusion 6) |  |  | 16.8 | 
UUUAACAAGCCAGAUCCUCACAUGAGGAUCACCCAUGUGCUCGUCUGAUUUUGUACUAUCACGUUUGUGAUAGUGUU [Level Boss var2-07] (puzzle: Sensor v3, turn-off variant 1) |  |  | 19.1 | apparent KD of MS2 coat protein [2]: 240 nM; apparent KD of MS2 coat protein [4]: 124 nM
GGAGGAAGAGAGGAUAUGGAGGAGAGGAGAAGACCAGAAGGUUCAACAUGAGGAUCACCCAUGUAUGAUCCUCA [AK-MS2ROC-r4-exclusion6-1.1] (Eterna round: R97, puzzle: Exclusion 6) | 789 | 694 |  | 
UACAUGAGGAUCACCCAUGUUUUGUCGUGUAUGGUAUUUAUCUAGGAUAUCAAUGUAUUUAUUUAUGAGAAGGAGAAUAUUAAU [JMF's solution 12] (Eterna round: R96, puzzle: Exclusion NG 3) |  |  |  | apparent KD of MS2 coat protein [1]: 29.6 nM
UCCAGUGAAGGAUAUGCACCAGGCAAUUGUAGGGUACUCAUACAUGAGGAUCACCCAUGUAGAAGGUCGCAGGC [Eternabot (L2) Solution 78] (Eterna round: R97, puzzle: Exclusion 2) | 32.4 |  |  | 
GAUCCACAUGAGGAUCACCCAUGUGAGGAUAUGAUACUAUGUACUUCGGUACAUAGUAUCAGAAGGCACAUUGA [Ex1-3: 45] (puzzle: Exclusion 1) |  |  | 136 | 
CAUACUAAAGUCAGGAUAUGCAGUCGAAUACGGGUGUAGAAGGGACAUGAGGAUCACCCAUGUAGAUAGUAAAG [EX-4 Malc #20] (puzzle: Brourd's mod of Exclusion 4) |  |  | 48.9 | apparent KD of MS2 coat protein [2]: 37.9 nM; apparent KD of MS2 coat protein [4]: 42.2 nM
UCUUAUUGCAAGGAUAUGCAAAUUAUUAUUAAAGCAGAAGGUGCAACAUGAGGAUCACCCAUGUUUCCGGGAAA [JR_E6_Sub040] (puzzle: Exclusion 6) |  |  | 25 | 
CACCAGCGAGGAUAUACACGUGGUCUCCACUCCCGGUGGUAACAUGAGGAUCACCCAUGUAGAAGGCGCAACAU [Gecedi] (puzzle: Exclusion 2) |  |  | 44.8 | 
ACUGGUCGAGGAUAUACAUGAGGAUCACCCAUGUUGAUCAACUGCCGAUAGGCAGAAUGUAGAAGGCGACCAGU [E3/7-A2] (Eterna round: R97, puzzle: Exclusion 3) | 119 | 942 |  | 
UUUUUGUGAGGAUAUCAGUAGUAAAAAAAUAAAAUUACUACUGAGAAGGCACAUGAGGAUCACCCAUGUUCCUU [salish99_ex4_r3_011] (puzzle: Exclusion 4) |  |  | 14.5 | 

Sequence | apparent KD of MS2 coat protein (input ligand: FMN 200 uM) [nM] | apparent KD of MS2 coat protein (input ligand: none) [nM] | apparent KD of MS2 coat protein [3] [nM] | also measured
GGUCUGCGAGGAUAUACAUGAGGAUCACCCAUGUGCGAGUUACUAGUGAGGUCGGUUGGUAGAAGGCGCGGACG [JL-ex3-2.09 salish99 mod] (puzzle: Exclusion 3) |  |  | 52.3 | apparent KD of MS2 coat protein [2]: 69.3 nM; apparent KD of MS2 coat protein [4]: 32.9 nM
AUGUGGGUAUGAAGGUGUAGAUAGAGCGUACGUUAUGGAACAUGAGGAUCACCCAUGUAGCUUUUUGCUCGUCUUAU [JR_SV3TOV2_Sub034] (puzzle: Sensor v3, turn-off variant 2) |  |  | 40.9 | apparent KD of MS2 coat protein [2]: 36.8 nM; apparent KD of MS2 coat protein [4]: 40.4 nM
GUCAUACAUGAGGAUCACCCAUGUAAGGAUAUGCUAGCGGUCGGAAGAAUGACUGCUAGCAGAAGGUACAUGAU [Mat - Mod of JL D83] (puzzle: Exclusion 1) |  |  | 62.5 | 
GGAAAACAUGAGGAUCACCCAUGUGAGGAUAUGCGUACGUUGUCCGUAGGCGACGUGCGCAGAAGGCGCAAGAG [Mat - Mod of JL D89] (puzzle: Exclusion 1) |  |  | 48.5 | apparent KD of MS2 coat protein [2]: 57.4 nM; apparent KD of MS2 coat protein [4]: 58.1 nM
GAGAAGGUAGGAUAUACGAAGAAAGAGGGUAGGAAGAAGACACAUGAGGAUCACCCAUGUAGAAGGACCAAGAG [Mat - Exclusion 2 - Mod of my Tesla design - D48] (puzzle: Exclusion 2) |  |  | 13.9 | apparent KD of MS2 coat protein [2]: 27.1 nM; apparent KD of MS2 coat protein [4]: 14.1 nM
CUCCGGCGUGUAGGAUAUGGUUCCGUUUCGGUUCCAGAAGGACAUGAGGAUCACCCAUGUACCUGUCGUCGGUCGUCACCGGGC [salish99_ExNG1_r04_216] (Eterna round: R96, puzzle: Exclusion NG 1) | 12.4 | 16.4 |  | apparent KD of MS2 coat protein [1]: 13.2 nM
CAUGGAACAUAGGAUAUCUCGCGGCUAGGCUGCAGAGAAGGAUGUACAUGAGGAUCACCCAUGUAUGAUCCAAU [Ataratin] (puzzle: Exclusion 6) |  |  | 16.3 | 
GGUUGGCGAGGAUAUACAUGAGGAUCACCCAUGUGAGAGAAAGAAGUGAGGAAGAAUAGUAGAAGGCGCUGACG [salish99_ex3_r3_056] (puzzle: Exclusion 3) |  |  | 56.1 | apparent KD of MS2 coat protein [2]: 746 nM; apparent KD of MS2 coat protein [4]: 69.1 nM
UUCGUGCAGCUUUGCUGUACGCGUACAUGAGGAUCACCCAUGUAGGAUAUGGUAGGCUUUGCUUACUAGAAGGAUAUGGUGAGC [JL EXNG3 1.33] (Eterna round: R96, puzzle: Exclusion NG 3) | 85.6 | 36.1 |  | apparent KD of MS2 coat protein [1]: 37.2 nM
GUGUACAGAGGAUAUACAAUAGGAGUUACGAAAGUAACUUCACAUGAGGAUCACCCAUGUAGAAGGCUGUACAC [Dot plot directed v8] (puzzle: Exclusion 2) |  |  | 17.7 | 
AACUAGUGAGGAUAUACAUGAGGAUCACCCAUGUACGUCGUGGGUAGAAAACAAGUCAGUAGAAGGUGCUAGAC [Ininor] (puzzle: Exclusion 3) |  |  | 174 | 
AUAAUACAUGUAGGAUAUCUGCACGUGUAGUGCAGAGAAGGACAUGAGGAUCACCCAUGUAAUUAAGAUCAAUUAUUAAAUUAU [ENG1/3-D3] (Eterna round: R96, puzzle: Exclusion NG 1) | 228 | 75.6 |  | apparent KD of MS2 coat protein [1]: 53.6 nM
GCCUCACUUGAGGAUCACCCAAGUCAGGAUAUUCACUGAGCUGCAUAACAACUCGGCCGAAGAAGGGAUUCGGG [Edlacebe] (Eterna round: R97, puzzle: Exclusion 1) | 41.3 | 84.9 |  | 
AAGUAGUGUGUGAGGAUAUUGGUGGAAUGACACAUUAAGAAGGCACAUGAGGAUCACCCAUGUGGGUUGACACG [Brourd's EX4 #20] (Eterna round: R97, puzzle: Brourd's mod of Exclusion 4) | 282 | 47 |  | 
UUCCUCGUUGUGAGGAUAUCGUCCGUGUUUUGUUACGAGAAGGCACAUGAGGAUCACCCAUGUUAUUUGAUUUU [JR_BMOE4_Sub074] (puzzle: Brourd's mod of Exclusion 4) |  |  | 36.8 | apparent KD of MS2 coat protein [2]: 83.6 nM; apparent KD of MS2 coat protein [4]: 37.9 nM
AGAAAUGCCCAUGGCCGCAAGCUUUUUGCUUGUCUUACCACAUGAGGAUCACCCAUGUGACAUGGGCUCCUGAUAAU [Bivequ] (puzzle: Sensor v3, turn-off variant 2) |  |  | 10.7 | apparent KD of MS2 coat protein [2]: 13.7 nM; apparent KD of MS2 coat protein [4]: 12.1 nM
GCAGCAUAGUCCAAAUAGGACAUACAUGAGGAUCACCCAUGUCAGGAUAUGGUCUGGAUUACAGGCCAGAAGGGACGUAGCUGC [Eli exng3 - 004] (Eterna round: R96, puzzle: Exclusion NG 3) | 25.9 | 23.6 |  | apparent KD of MS2 coat protein [1]: 20.9 nM
GUAUCGUGAGGAUAUCAUGAUUGACUUUUAUUUUGUCAGCGUGAGAAGGCACAUGAGGAUCACCCAUGUGAUUA [Ex4 - 3 - 8] (puzzle: Exclusion 4) |  |  | 23.2 | 
